Data set [1] addresses human polyadenylate binding protein 1 (PABP1) (human, UniProt P11940 1-636). Nature of the data set: native gel or EMSA. On the technique in general: In EMSA bound probe runs differently from free probe, usually more slowly.
In data set [2] the target is T1, PABP1 (Homo sapiens, UniProt P11940 1-636). Nature of the data set: EMSA.
Data set [3] has as its target T1, PABP1. Nature of the data set: EMSA. This is another data set of the same source.

Read-outs that look alike come from different tables or passages of the source.

T1 sequence (P11940 whole entry): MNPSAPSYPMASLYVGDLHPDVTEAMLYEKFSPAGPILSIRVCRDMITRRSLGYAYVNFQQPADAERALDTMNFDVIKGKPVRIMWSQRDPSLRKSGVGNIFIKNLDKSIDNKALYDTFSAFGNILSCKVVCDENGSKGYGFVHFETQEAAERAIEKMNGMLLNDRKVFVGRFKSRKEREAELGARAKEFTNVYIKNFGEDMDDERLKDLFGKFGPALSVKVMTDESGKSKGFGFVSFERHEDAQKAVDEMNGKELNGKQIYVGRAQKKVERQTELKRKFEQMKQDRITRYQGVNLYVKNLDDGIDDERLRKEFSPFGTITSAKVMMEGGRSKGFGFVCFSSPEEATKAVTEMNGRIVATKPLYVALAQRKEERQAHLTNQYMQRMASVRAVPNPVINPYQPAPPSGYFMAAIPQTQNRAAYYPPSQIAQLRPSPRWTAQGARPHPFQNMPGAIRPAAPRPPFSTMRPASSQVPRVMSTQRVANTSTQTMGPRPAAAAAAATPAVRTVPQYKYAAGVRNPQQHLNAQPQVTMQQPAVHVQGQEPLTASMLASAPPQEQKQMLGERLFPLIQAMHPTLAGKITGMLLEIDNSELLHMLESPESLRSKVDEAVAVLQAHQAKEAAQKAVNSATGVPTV
Sequence of human polyadenylate binding protein 1 (PABP1) (P11940 whole entry): as above

B1: human eIF4G1 fragment (88–653) (domain or fragment, UniProt Q04637-1 88-653, looked up)
chain: MMIPSQISYPASQGAYYIPGQGRSTYVVPTQQYPVQPGAPGFYPGASPTEFGTYAGAYYPAQGVQQFPTGVAPTPVLMNQPPQIAPKRERKTIRIRDPNQGGKDITEEIMSGARTASTPTPPQTGGGLEPQANGETPQVAVIVRPDDRSQGAIIADRPGLPGPEHSPSESQPSSPSPTPSPSPVLEPGSEPNLAVLSIPGDTMTTIQMSVEESTPISRETGEPYRLSPEPTPLAEPILEVEVTLSKPVPESEFSSSPLQAPTPLASHTVEIHEPNGMVPSEDLEPEVESSPELAPPPACPSESPVPIAPTAQPEELLNGAPSPPAVDLSPVSEPEEQAKEVTASMAPPTIPSATPATAPSATSPAQEEEMEEEEEEEEGEAGEAGEAESEKGGEELLPPESTPIPANLSQNLEAAAATQVAVSVPKRRRKIKELNKKEAVGDLLDAFKEANPAVPEVENQPPAGSNPGPESEGSGVPPRPEEADETWDSKEDKIHNAENIQPGEQKYEYKSDQWKPLNLEEKKRYDREFLLGFQFIFASMQKPEGLPHISDVVLDKANKTPLRPLDT
Regarding B1, the binding result in data set [1] was “binds”.

Take GCUAUCCAGAUUCUGAUU (ssRNA) [ssCR1]: in the data set with PABP1 [2], the binding result is listed as “no binding”.

Turning to AAAAAAAAAAAAAAAAAA (ssRNA) [Poly(A)18], the binding result with PABP1 [3] is “binds”.

The values above are taken from paper PMC8897273 (Journal of molecular biology, 2022).
